Assay results reported in US20190330323A1 (UCB, published 2019).
Positions count from the first letter of the chain named.

T1: BMP4/7 heterodimer (human, UniProt P12644 293-408; P18075 293-431)
T1 sequence (looked up) 1: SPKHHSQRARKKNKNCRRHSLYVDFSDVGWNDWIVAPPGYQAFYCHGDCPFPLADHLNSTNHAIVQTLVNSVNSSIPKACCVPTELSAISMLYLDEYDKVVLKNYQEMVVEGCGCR
T1 sequence (looked up) 2: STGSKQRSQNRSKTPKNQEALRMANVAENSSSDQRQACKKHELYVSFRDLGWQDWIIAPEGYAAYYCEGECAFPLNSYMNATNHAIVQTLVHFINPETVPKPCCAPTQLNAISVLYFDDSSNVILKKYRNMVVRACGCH

T2: mouse Gremlin (mouse, UniProt O70326 25-184)
T2 sequence (looked up): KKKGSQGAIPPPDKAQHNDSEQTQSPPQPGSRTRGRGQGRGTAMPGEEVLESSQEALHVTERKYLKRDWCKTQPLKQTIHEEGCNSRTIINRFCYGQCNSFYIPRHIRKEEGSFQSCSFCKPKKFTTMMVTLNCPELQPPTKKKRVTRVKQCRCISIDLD

B1: truncated human Gremlin-1 (E. coli, refolded, N-terminal 6His-TEV tag) (ligand)
chain: MGSSHHHHHHSSGENLYFQGSAMPGEEVLESSQEALHVTERKYLKRDWCKTQPLKQTIHEEGCNSRTIINRFCYGQCNSFYIPRHIRKEEGSFQSCSFCKPKKFTTMMVTLNCPELQPPTKKKRVTRVKQCRCISIDLD
B2: Ab7326 (as tested in the screening assays of Example 5) (antibody, V domains shown)
VH: QVQLVESGAEVKKPGATVKISCKVSGYTFTDYYMHWVQQAPGKGLEWMGLVDPEDGETIYAEKFQGRVTITADTSTDTAYMELSSLRSEDTAVYYCATDARGSGSYYPNHFDYWGQGTLVTVSS
VL: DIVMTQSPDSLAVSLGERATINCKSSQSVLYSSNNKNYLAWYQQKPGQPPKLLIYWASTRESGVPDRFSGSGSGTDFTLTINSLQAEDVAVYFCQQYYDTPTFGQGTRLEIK
B3: human Gremlin-1 (recombinant, full length) (ligand)
chain: T2 sequence (looked up) with P27Q, T33N

Columns and labels:
Assay in all cases: cell-based or functional assay
BMP4/7 heterodimer [1] = molecular target: T1, BMP4/7 heterodimer
BMP4/7 heterodimer [2] = molecular target: T1, BMP4/7 heterodimer; remark: listed apart in the source
[3] = molecular target: B3
mouse Gremlin = molecular target: T2, mouse Gremlin

| Binder | IC50, Geometric mean (nM), Hek-Id1 reporter gene assay, N = 2 (BMP4/7 heterodimer [1]) | IC50 (read off the curve) [B] (BMP4/7 heterodimer [2]) | IC50, restoration of BMP signalling, Hek-Id1 reporter gene assay [3] | IC50, restoration of BMP signalling, Hek-Id1 reporter gene assay (mouse Gremlin) |
| --- | --- | --- | --- | --- |
| B1 | 1.7 nM | ~3 nM |  |  |
| B2 |  |  | 1.3 nM | 0.2 nM |
| B3 | 1.6 nM |  |  |  |
